The text below walks through data of paper PMC5780489, “Characterization of the multimeric structure of poly(A)-binding protein on a poly(A) tail” (Scientific Reports, 2018).

The assay addresses T1, PABPC1 RRM1/2/3/4 (residues 1-370) (human, UniProt P11940 1-370).
T1 construct: human PABPC1, residues 1-370 (RRM1 to RRM4), cloned into pET-42b(+); Used in complex with long poly(A) or A24 RNA; Purification details are in the Supplementary methods; source: E. coli, purified (Glutathione-Sepharose 4B, GST cleaved off, cation exchange, gel filtration)
Nature of the assay: NMR titration; 1H-15N HSQC of 15N-labelled Lt2 (100 μM) with RRM1/2/3/4-A24 at 50, 100 and 150 μM; chemical shift changes of W437 side chain, W437 and T438 fitted to a 1:1 model; not saturated; 303 K, 26 mM NaH2PO4 pH 6.0, 100 mM NaCl. Conditions: both partners purified.

T1 sequence (P11940 1-370): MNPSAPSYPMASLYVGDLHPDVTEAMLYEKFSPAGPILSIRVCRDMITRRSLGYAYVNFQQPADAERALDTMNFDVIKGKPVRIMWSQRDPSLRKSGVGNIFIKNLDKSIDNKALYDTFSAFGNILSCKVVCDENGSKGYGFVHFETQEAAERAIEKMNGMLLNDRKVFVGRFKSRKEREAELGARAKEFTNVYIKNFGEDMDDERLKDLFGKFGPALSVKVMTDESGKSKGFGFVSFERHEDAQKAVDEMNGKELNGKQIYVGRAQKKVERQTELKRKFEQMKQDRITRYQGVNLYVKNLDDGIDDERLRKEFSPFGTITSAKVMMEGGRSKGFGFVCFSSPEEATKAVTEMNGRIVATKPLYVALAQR

B1: PABPC1 linker fragment Lt2 (residues 421-470) (peptide, UniProt P11940 421-470, looked up)
chain: AYYPPSQIAQLRPSPRWTAQGARPHPFQNMPGAIRPAAPRPPFSTMRPAS
notes: human PABPC1, residues 421-470, cloned into pGEX-6p-1; Uniformly 15N-labelled for NMR
As a reminder, the Kd is the free concentration of one partner at which half of the binding sites on the other are occupied at equilibrium, for simple one-to-one binding. On to B1, for which the Kd lay in the range of 10 to 54 µM.
